Common to all, as to test: cell-based or functional assay
The target of assay [1] is HIV-1 Env protein of virus strain 89-F1_2_25 (HIV-1).
The target of assay [2] is HIV-1 Env of pseudovirus strain 6545.v4.c1 (HIV-1).
The target of assay [3] is HIV-1 YU2 Env, wild type (YU2 pseudovirus) (HIV-1) (UniProt P35961).
Chain of HIV-1 YU2 Env, wild type (YU2 pseudovirus) (HIV-1) (P35961 32-843 limits assumed): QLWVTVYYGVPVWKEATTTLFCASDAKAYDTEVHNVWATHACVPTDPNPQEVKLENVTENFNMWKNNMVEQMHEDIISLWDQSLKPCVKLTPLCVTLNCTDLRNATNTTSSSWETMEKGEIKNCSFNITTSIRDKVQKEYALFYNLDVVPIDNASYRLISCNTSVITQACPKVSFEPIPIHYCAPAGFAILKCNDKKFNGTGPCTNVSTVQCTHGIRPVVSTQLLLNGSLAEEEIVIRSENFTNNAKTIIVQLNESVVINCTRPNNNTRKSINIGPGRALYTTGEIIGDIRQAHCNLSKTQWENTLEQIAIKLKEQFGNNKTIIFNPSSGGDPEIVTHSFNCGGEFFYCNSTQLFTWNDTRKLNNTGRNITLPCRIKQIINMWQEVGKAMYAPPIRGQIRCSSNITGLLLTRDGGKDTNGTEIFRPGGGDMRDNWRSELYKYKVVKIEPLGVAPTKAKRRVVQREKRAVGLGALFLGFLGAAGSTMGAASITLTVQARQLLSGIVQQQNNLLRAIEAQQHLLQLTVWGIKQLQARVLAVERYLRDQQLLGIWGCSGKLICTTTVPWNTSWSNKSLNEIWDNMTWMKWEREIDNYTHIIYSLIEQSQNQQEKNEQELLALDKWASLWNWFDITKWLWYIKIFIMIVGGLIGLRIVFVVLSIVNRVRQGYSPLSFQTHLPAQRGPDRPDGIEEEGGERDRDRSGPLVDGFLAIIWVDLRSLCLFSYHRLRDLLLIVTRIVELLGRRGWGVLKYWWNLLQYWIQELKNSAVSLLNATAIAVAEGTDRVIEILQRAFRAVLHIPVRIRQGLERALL

In the case of 3BNC117 (antibody), the IC50, TZM-bl pseudovirus neutralization assay in assay [1] and in assay [2] was over 20 µg/mL in each case.

Substance 8ANC131 (antibody) had an IC50, TZM-bl cell neutralization assay in assay [3] of 0.256 µg/mL.

As for N6 (antibody), the IC50, TZM-bl pseudovirus neutralization assay in assay [1] is over 20 µg/mL; in assay [2], 16.2 µg/mL.

With VRC01 (antibody), the IC50, TZM-bl pseudovirus neutralization assay in assay [1] and in assay [2] was over 20 µg/mL throughout. Moreover, the IC50, TZM-bl cell neutralization assay in assay [3] was determined as 0.107 µg/mL.

Substance VRC07-523-LS (antibody) came in with an IC50, TZM-bl pseudovirus neutralization assay in assay [2] of over 20 µg/mL.

(Values after patent US20240376183A1.)
